# Where no end group is shown, it is not given here. [ ]: non-standard residue; d: D form. pY = N[C@@H](Cc1ccc(OP(=O)(O)O)cc1)C(=O)O
# B1: phospho-SLP76 peptide (ADpYEPP) (peptide)
# peptide: AD[pY]EPP
# B2: Btk SH2 phospho-peptide ligand (GDGpYEEISPLLL) (peptide)
# peptide: GDG[pY]EEISPLLL
# What was measured:
# Assay in all cases: NMR titration
# [1] = target: Itk SH2 domain E308A/K309A double mutant (mouse (the paper calls its residue numbers 'mouse numbering'))
# [2] = target: Itk SH2 domain, wild type (mouse (the paper calls its residue numbers 'mouse numbering'))
# [3] = target: Btk SH2 domain, wild type (UniProt Q06187 270-387)
# Btk SH2 domain H364D = Btk SH2 domain H364D (UniProt Q06187 270-387, H364D)
# Btk SH2 domain S371P = Btk SH2 domain S371P (UniProt Q06187 270-387, S371P)
# Btk SH2 domain S371P, sequence (Q06187 270-387 S371P): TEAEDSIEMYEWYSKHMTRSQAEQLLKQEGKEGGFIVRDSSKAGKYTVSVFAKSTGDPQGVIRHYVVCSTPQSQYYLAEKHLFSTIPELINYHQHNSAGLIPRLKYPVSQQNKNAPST
# Btk SH2 domain H364D, sequence (Q06187 270-387 H364D): as the sequence (Q06187 270-387 S371P) above, with H95D, P102S counted along it
# Btk SH2 domain, wild type, sequence (Q06187 270-387): as the sequence (Q06187 270-387 S371P) above, with P102S counted along it
binder,measurement,setting,value
B1,Kd,[1],480 µM
same,Kd,[2],380 µM
B2,Kd,[3],450 ± 40 µM
same,Kd,Btk SH2 domain H364D,500 ± 200 µM
same,Kd,Btk SH2 domain S371P,600 ± 110 µM
